In paper PMC8425125, “Regulation of wound ethylene biosynthesis by NAC transcription factors in kiwifruit”:

How the values were obtained:
Experiment in all cases: EMSA; ~2.5 ug protein, 0.9 pmol probe in 20 uL; 5 mM HEPES-KOH pH 7.6, 30 mM NaCl, 0.2 mM DTT, 0.02 mM EDTA, 0.8 ug salmon sperm DNA, 0.2 ug poly(dI-dC); room temperature 15 min; 4% native PAGE, 0.5x TBE (printed 0.5% w/v), 5% glycerol, pH 8.3, 4 C
Conditions in all cases: protein: recombinant; tags: N-terminal MBP (pMAL-c2x); chain copies: 2; label: 3'-biotin; blunt
[1] = molecular target: AcNAC4 DNA-binding domain (Actinidia chinensis, UniProt A0A075ECR2 1-182)
[2] = molecular target: AcNAC2 DNA-binding domain (Actinidia chinensis, UniProt A0A075EAR8 1-182)
[3] = molecular target: AcNAC1 DNA-binding domain (Actinidia chinensis, UniProt A0A075EB52 1-182)
[4] = molecular target: AcNAC3 DNA-binding domain (Actinidia chinensis, UniProt A0A075EC91 1-182)
Sequence of AcNAC3 DNA-binding domain (A0A075EC91 entry or part of it): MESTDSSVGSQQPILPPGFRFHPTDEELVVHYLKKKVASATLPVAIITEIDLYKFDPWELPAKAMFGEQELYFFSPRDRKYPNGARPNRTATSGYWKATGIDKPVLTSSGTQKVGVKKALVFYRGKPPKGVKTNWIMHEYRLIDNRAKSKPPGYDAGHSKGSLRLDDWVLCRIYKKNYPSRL

Sequence of AcNAC1 DNA-binding domain (A0A075EB52 entry or part of it): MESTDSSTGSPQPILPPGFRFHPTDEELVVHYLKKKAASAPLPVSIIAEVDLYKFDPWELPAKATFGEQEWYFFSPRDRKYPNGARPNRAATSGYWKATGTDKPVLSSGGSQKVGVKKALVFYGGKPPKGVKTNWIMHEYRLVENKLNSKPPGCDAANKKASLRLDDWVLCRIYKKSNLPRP
Sequence of AcNAC4 DNA-binding domain (A0A075ECR2 entry or part of it): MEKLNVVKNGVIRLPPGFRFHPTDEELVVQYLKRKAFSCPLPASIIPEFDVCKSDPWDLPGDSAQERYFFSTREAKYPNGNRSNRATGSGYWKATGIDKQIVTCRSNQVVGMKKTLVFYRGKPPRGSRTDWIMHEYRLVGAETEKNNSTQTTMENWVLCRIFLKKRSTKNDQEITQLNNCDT
Sequence of AcNAC2 DNA-binding domain (A0A075EAR8 entry or part of it): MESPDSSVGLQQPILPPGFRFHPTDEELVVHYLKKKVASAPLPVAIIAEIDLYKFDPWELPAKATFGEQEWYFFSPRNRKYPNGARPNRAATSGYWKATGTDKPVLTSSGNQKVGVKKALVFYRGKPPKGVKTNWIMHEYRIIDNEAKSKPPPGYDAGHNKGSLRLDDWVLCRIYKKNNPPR

Binder | binding result [1] | binding result [2] | binding result [3] | binding result [4]
AcACS1 probe N1 (Wt) (dsDNA) DNA 1: CATTATACGTATAGTCAACCACATAAC DNA 2: GTTATGTGGTTGACTATACGTATAATG | binds | binds | binds | binds
AcACS1 probe N1MUT (Mut) (dsDNA) DNA 1: CATCGATCCATCTGTCAACCACATAAC DNA 2: GTTATGTGGTTGACAGATGGATCGATG | no binding | no binding | no binding | no binding
